Assay results as given in the supplement of paper PMC7877785.
± gives the uncertainty stated by the source.

Assay: self-splicing fitness, log relative to wild type (ln ratio); higher = more splicing; Tetrahymena group I intron in knt gene, E. coli kanamycin selection, DiMSum; sequences stand for … in CUCUCU…GGAGGGAAAAGUUAUCAGGCAUGCACCUGGUAGCUAGUCUUUAAACCAAUAGAUUGCAUCGGUUUAAAAGGCAAGACCGUCAAAUUGCGGGAAAGGGGUCAACAGCCGUUCAGUACCAAGUCUCAGGGGAAACUUUGAGAUGGCCUUGCAAAGGGUAUGGUAAUAAGCUGACGGACAUGGUCCUAACCACGCAGCCAAGUCCUAAGUCAACAGAUCUUCUGUUGAUAUGGAUGCAGUUCACAGACUAAAUGUCGGUCGGGGAAGAUGUAUUCUUCUCAUAAGAUAUAGUCGGACCUCUCCUUAAUGGGAGCUAGCGGAUGAAGUGAUGCAACACUGGAGCCGCUGGGAACUAAUUUGUAUGCGAAAGUAUAUUGAUUAGUUUUGGAGUACUCGUGGUCG
Method in brief: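 Fitness was computed with DiMSum as the error-weighted combination of replicate fold changes, kanamycin versus none, each normalised to wild type. The library randomised all eight intron nucleotides of the P1ex region, with the intron placed in the knt kanamycin-resistance gene on pET-22b(+) in E. coli BL21(DE3). Six replicate transformations were grown overnight at 37°C or 30°C on LB agar with or without 25 μg/mL kanamycin, plus 100 μg/mL carbenicillin, 50 μM IPTG and 0.2% rhamnose. Pooled colonies were amplicon-sequenced on an Illumina HiSeq 2500.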

Sequence	self-splicing fitness (ln) (30 °C)	self-splicing fitness (ln) (37 °C)
CGUCAGCAAUAUUACGGGGC	-2.73 ± 0.2	-3.05 ± 0.32
CGUCAGCAAUAUUACGGUGC	-2.31 ± 0.11	-3.54 ± 0.31
CGUCAGCAAUAUUACGUACU	-0.663 ± 0.1	-0.361 ± 0.12
CGUCAGCAAUAUUACGUAGA	-1.3 ± 0.069	-0.865 ± 0.1
CGUCAGCAAUAUUACGUAGC	-2.81 ± 0.12	-2.29 ± 0.14
CGUCAGCAAUAUUACGUCGC	-3.45 ± 0.34	-1.88 ± 0.36
CGUCAGCAAUAUUACGUGGU	-3.59 ± 0.12	-2.5 ± 0.13
CGUCAGCAAUAUUACGUUAG	-0.494 ± 0.065	-0.365 ± 0.094
CGUCAGCAAUAUUACGUUGU	-3.9 ± 0.23	-2.12 ± 0.18
CGUGAGCAAUAUUACGAAUC	-2.66 ± 0.2	-2.34 ± 0.28
CGUGAGCAAUAUUACGAGAU	-3.4 ± 0.26	-1.57 ± 0.24
CGUGAGCAAUAUUACGAUAA	-4.37 ± 0.39	-2.68 ± 0.23
CGUGAGCAAUAUUACGCGAC	-2.65 ± 0.35	-2.21 ± 0.36
CGUGAGCAAUAUUACGCGCC	-2.85 ± 0.36	-1.95 ± 0.28
CGUGAGCAAUAUUACGCGCU	–	-1.8 ± 0.36
CGUGAGCAAUAUUACGCGGU	-3.83 ± 0.34	-2.06 ± 0.32
CGUGAGCAAUAUUACGCUAC	–	-0.816 ± 0.38
CGUGAGCAAUAUUACGCUAG	-2.9 ± 0.12	-1.47 ± 0.21
CGUGAGCAAUAUUACGCUGC	-2.64 ± 0.32	–
CGUGAGCAAUAUUACGGACU	-1.09 ± 0.14	-0.345 ± 0.23
CGUGAGCAAUAUUACGGAUC	-4.24 ± 0.33	-1.88 ± 0.25
CGUGAGCAAUAUUACGUAAU	-3.22 ± 0.26	-2.19 ± 0.25
CGUGAGCAAUAUUACGUAUC	-1.84 ± 0.16	-2.42 ± 0.27
CGUGAGCAAUAUUACGUCUG	-0.656 ± 0.072	0.0039 ± 0.094
CGUGAGCAAUAUUACGUGCU	-3.78 ± 0.29	-2.97 ± 0.34

Sequence	self-splicing fitness (ln) (30 °C)	self-splicing fitness (ln) (37 °C)
CGUGAGCAAUAUUACGUUUA	-3.08 ± 0.39	–
CGUUAGCAAUAUUACGAAAC	–	-1.84 ± 0.37
CGUUAGCAAUAUUACGAAAU	-3.82 ± 0.35	-2.2 ± 0.28
CGUUAGCAAUAUUACGAAUG	-1.92 ± 0.15	0.491 ± 0.12
CGUUAGCAAUAUUACGAAUU	–	-2.39 ± 0.33
CGUUAGCAAUAUUACGACCG	-1.13 ± 0.14	-0.193 ± 0.2
CGUUAGCAAUAUUACGACUA	-1.12 ± 0.16	0.415 ± 0.14
CGUUAGCAAUAUUACGACUU	-1.03 ± 0.12	-0.0418 ± 0.17
CGUUAGCAAUAUUACGCCCU	-1.26 ± 0.2	-0.204 ± 0.19
CGUUAGCAAUAUUACGCGAA	-3.36 ± 0.41	-3.1 ± 0.43
CGUUAGCAAUAUUACGCUCG	-1.41 ± 0.14	-1.38 ± 0.18
CGUUAGCAAUAUUACGCUUA	-3.67 ± 0.28	-1.86 ± 0.25
CGUUAGCAAUAUUACGGAAU	–	-2.07 ± 0.36
CGUUAGCAAUAUUACGGAGG	-1.43 ± 0.12	-1.01 ± 0.11
CGUUAGCAAUAUUACGGCGG	-0.628 ± 0.1	-0.396 ± 0.12
CGUUAGCAAUAUUACGGGAC	-2.68 ± 0.34	-3.7 ± 0.39
CGUUAGCAAUAUUACGGUAU	-3.23 ± 0.22	-2.2 ± 0.22
CGUUAGCAAUAUUACGGUCU	-1.56 ± 0.18	-1.22 ± 0.16
CGUUAGCAAUAUUACGGUGG	-0.853 ± 0.056	-0.115 ± 0.079
CGUUAGCAAUAUUACGUAGC	-3.37 ± 0.22	-2.68 ± 0.25
CGUUAGCAAUAUUACGUCAG	-0.851 ± 0.13	0.0149 ± 0.14
CGUUAGCAAUAUUACGUCAU	-2.58 ± 0.21	-2.85 ± 0.3
CGUUAGCAAUAUUACGUCCG	-0.128 ± 0.18	-0.407 ± 0.2
CGUUAGCAAUAUUACGUCUU	-4.03 ± 0.26	-1.29 ± 0.099
CGUUAGCAAUAUUACGUGUC	-4.28 ± 0.37	-2.18 ± 0.18

Sequence	self-splicing fitness (ln) (30 °C)	self-splicing fitness (ln) (37 °C)
CGUUAGCAAUAUUACGUUCA	-0.69 ± 0.078	-0.192 ± 0.083
CGUUAGCAAUAUUACGUUCG	-1.38 ± 0.091	-1.02 ± 0.13
CUAAAGCAAUAUUACGAAGC	–	-2.06 ± 0.42
CUAAAGCAAUAUUACGAAUG	0.281 ± 0.067	0.497 ± 0.088
CUAAAGCAAUAUUACGACUU	-3.45 ± 0.2	-3.47 ± 0.39
CUAAAGCAAUAUUACGCCAC	-2.89 ± 0.49	–
CUAAAGCAAUAUUACGCGCC	-2.84 ± 0.23	-2.6 ± 0.4
CUAAAGCAAUAUUACGCGCG	0.227 ± 0.072	-0.176 ± 0.095
CUAAAGCAAUAUUACGCUUG	-2.8 ± 0.15	-1.58 ± 0.17
CUAAAGCAAUAUUACGGAUG	-0.152 ± 0.049	-0.202 ± 0.069
CUAAAGCAAUAUUACGGCCU	-3.01 ± 0.15	-2.5 ± 0.28
CUAAAGCAAUAUUACGGGAA	-3.28 ± 0.2	-2.1 ± 0.17
CUAAAGCAAUAUUACGGGGG	-1.87 ± 0.13	-1.15 ± 0.13
CUAAAGCAAUAUUACGGGGU	-3.19 ± 0.14	-2.94 ± 0.17
CUAAAGCAAUAUUACGGUAG	-0.409 ± 0.043	-0.0448 ± 0.059
CUAAAGCAAUAUUACGGUCG	0.0851 ± 0.065	0.151 ± 0.086
CUAAAGCAAUAUUACGGUUG	-0.57 ± 0.056	-0.138 ± 0.081
CUAAAGCAAUAUUACGUAUA	-3.23 ± 0.14	-3.09 ± 0.28
CUAAAGCAAUAUUACGUCAG	-0.715 ± 0.064	0.333 ± 0.1
CUAAAGCAAUAUUACGUGGC	-2.9 ± 0.12	-2.05 ± 0.15
CUACAGCAAUAUUACGAAGA	-3.21 ± 0.45	-2.56 ± 0.41
CUACAGCAAUAUUACGAAUU	-3.04 ± 0.14	-2.94 ± 0.24
CUACAGCAAUAUUACGACUA	-2.2 ± 0.23	-2.38 ± 0.35
CUACAGCAAUAUUACGACUU	-3.83 ± 0.32	-2.81 ± 0.35
CUACAGCAAUAUUACGAGAU	-4.21 ± 0.37	-2.96 ± 0.28

Sequence	self-splicing fitness (ln) (30 °C)	self-splicing fitness (ln) (37 °C)
CUACAGCAAUAUUACGAGCC	-2.24 ± 0.24	-1.88 ± 0.31
CUACAGCAAUAUUACGAGGA	-3.4 ± 0.2	-3.21 ± 0.27
CUACAGCAAUAUUACGAUGA	-3.02 ± 0.19	-2.13 ± 0.14
CUACAGCAAUAUUACGAUGU	-3.46 ± 0.17	-2.44 ± 0.19
CUACAGCAAUAUUACGCACA	-3.12 ± 0.2	-3.29 ± 0.27
CUACAGCAAUAUUACGCCAA	-3.32 ± 0.17	-3.04 ± 0.25
CUACAGCAAUAUUACGCCCA	-2.99 ± 0.27	-1.85 ± 0.23
CUACAGCAAUAUUACGCCUA	-2.46 ± 0.18	-3.31 ± 0.28
CUACAGCAAUAUUACGCGCC	-3.98 ± 0.35	-2.3 ± 0.41
CUACAGCAAUAUUACGCGCU	-3.59 ± 0.28	-1.5 ± 0.23
CUACAGCAAUAUUACGCGUA	-3.72 ± 0.31	-2.84 ± 0.3
CUACAGCAAUAUUACGCUUC	–	-2.88 ± 0.44
CUACAGCAAUAUUACGGACA	-1.52 ± 0.39	-2.47 ± 0.38
CUACAGCAAUAUUACGGCAG	-1.07 ± 0.063	-0.452 ± 0.088
CUACAGCAAUAUUACGGCGA	-2.97 ± 0.39	-2.91 ± 0.27
CUACAGCAAUAUUACGGUUA	-0.432 ± 0.092	0.11 ± 0.1
CUACAGCAAUAUUACGUAAA	-3.13 ± 0.16	-1.92 ± 0.17
CUACAGCAAUAUUACGUCUA	-3.21 ± 0.24	-3.04 ± 0.33
CUACAGCAAUAUUACGUCUC	-3.38 ± 0.18	-2.55 ± 0.3
CUACAGCAAUAUUACGUGUA	-3.12 ± 0.14	-2.93 ± 0.16
CUACAGCAAUAUUACGUGUU	-3.08 ± 0.16	-2.94 ± 0.15
CUACAGCAAUAUUACGUUCU	-2.56 ± 0.12	-2.42 ± 0.2
CUAGAGCAAUAUUACGAAAC	-3.57 ± 0.31	-2.41 ± 0.39
